Kd data for three molecules are collected here from paper PMC12412652 (2025).

What all share (test): BLI
On the technique in general: Biolayer interferometry detects binding as a change in optical thickness at a sensor tip.

In one test the target is T1, BFL-1 (UniProt Q16548 1-175, biotin).
T1 chain: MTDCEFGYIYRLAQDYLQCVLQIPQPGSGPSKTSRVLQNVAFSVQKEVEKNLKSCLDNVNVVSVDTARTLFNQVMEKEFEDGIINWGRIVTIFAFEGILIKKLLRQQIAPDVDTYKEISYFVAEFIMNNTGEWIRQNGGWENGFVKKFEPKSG

The target of another test is BCL-2 (UniProt P10415 1-239, biotin).
Test [1] addresses MBP-BAK 16-186, biotinylated (Avi tag, 6-histidine tag) (human, UniProt Q16611 16-186, biotin on the Avi tag (enzymatic, BirA)).
Test [2] has as its target T2, MBP-BAK 16-186, biotinylated (Avi tag, 6-histidine tag) (human, UniProt Q16611 16-186, biotin on the Avi tag (enzymatic, BirA)).
T2 chain: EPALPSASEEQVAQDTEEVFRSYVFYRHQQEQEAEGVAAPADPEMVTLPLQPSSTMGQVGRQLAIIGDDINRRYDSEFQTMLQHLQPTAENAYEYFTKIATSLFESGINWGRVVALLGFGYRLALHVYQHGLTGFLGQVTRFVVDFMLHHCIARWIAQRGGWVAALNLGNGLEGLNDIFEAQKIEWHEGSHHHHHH

Test [3] has as its target MBP-BAX 1-166 C62S C126S, biotinylated (Avi tag, 6-histidine tag) (human, UniProt Q07812 1-166, C62S | C126S, biotin on the Avi tag (enzymatic, BirA)).

Sequence of BCL-2 (P10415 1-207): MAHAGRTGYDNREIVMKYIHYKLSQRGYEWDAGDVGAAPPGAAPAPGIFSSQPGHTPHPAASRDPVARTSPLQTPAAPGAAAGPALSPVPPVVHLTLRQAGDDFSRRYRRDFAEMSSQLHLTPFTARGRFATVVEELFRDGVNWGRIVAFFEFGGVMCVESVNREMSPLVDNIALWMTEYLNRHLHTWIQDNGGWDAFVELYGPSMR
Sequence of MBP-BAX 1-166 C62S C126S, biotinylated (Avi tag, 6-histidine tag) (Q07812 1-166 C62S/C126S): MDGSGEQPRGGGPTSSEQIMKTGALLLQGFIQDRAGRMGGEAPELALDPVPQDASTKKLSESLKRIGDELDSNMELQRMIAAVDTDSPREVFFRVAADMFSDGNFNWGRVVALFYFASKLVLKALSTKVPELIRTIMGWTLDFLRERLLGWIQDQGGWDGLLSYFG

B1: BAX-CDP01 (BAX-targeting computationally designed protein 01) (designed binder)
chain: GADPKKVLDKARDQAENRVRELAQKLEELYKEARKLDLTQEERRKLEKRYKAAMEEAIKDIREAIRQAKQEADKLKKAGLVNSQQLKELKQRLNELAIAAALRAIGDAIEFRRKLQYG
As for B1, the Kd was 23 nM with BFL-1, 50 nM with BCL-2 and 3.1 µM in test [1].

B2: αBAX2 (designed binder)
chain: GADPKKVLDKARDQAENRVRELRQKLTELYKEARKLDLTQEERRKLIKRYKAAMNEAIKDIHEAIEQAKEEADKLKDAGLVNEQQLKELKQRLNEKALAAAFRASGDTWHARRKLQYG
Regarding B2, the Kd was more than 9 µM in test [2], 300 nM with BFL-1 and 2300 nM with BCL-2.

B3: αBAX1 (designed binder)
chain: GADPKKVLDKARDQAENRVRELAQKLEELYKEARKLDLTQEERRKLEKRYKAAMEEAIKDIHEAIEQAKEEADKLKDAGLVNEQQLKELKQRLNELAIAAAFRASGDTIEFRRKLQYG
As to B3, the results for the Kd (in test [3]; with BCL-2; in test [1]) were 1.43 nM, 3500 nM and more than 20 µM, respectively.

In general, Kd refers to the concentration at which binding is half-saturated. A high value points to weaker binding.
